Legend:
[1] = test system: MS2 coat protein; assay: apparent KD of MS2 coat protein, switch OFF state (with FMN for OFF switches, without FMN for ON switches); designed switch direction (-1 OFF switch, 1 ON switch): -1; higher = weaker reporter binding; conditions: FMN input: 0 or 200 uM; Eterna round: R93 (includes R88 designs)
In short: (§1)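 Values are apparent KD, taken as the median for each design of fits to normalised binding curves from individual clusters. The designed RNA switches were transcribed on-chip from Illumina sequencing clusters and exposed to SNAP-549-labelled MS2 coat protein at twofold increasing amounts from 0.7 or 1.5 nM to 3 µM. Titration used 100 mM Tris-HCl pH 7.5, 80 mM KCl and 4 mM MgCl2, without or with constant ligand.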

[2] = test system: MS2 coat protein; assay: apparent KD of MS2 coat protein, switch ON state; designed switch direction (-1 OFF switch, 1 ON switch): -1; higher = weaker reporter binding; conditions: FMN input: 0 or 200 uM; Eterna round: R93 (includes R88 designs)
In short: as §1

[3] = test system: MS2 coat protein; assay: apparent KD of MS2 coat protein; designed switch direction (-1 OFF switch, 1 ON switch): 1; higher = weaker reporter binding
In short: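 Designed RNA switches with common flanks were made on Illumina chips by stalled E. coli RNA polymerase. Titration with SNAP-549-labelled MS2 coat protein doubled from 0.7 or 1.5 nM up to 3 µM. Apparent KD is each design's median over clusters after curve-fitting normalised fluorescence.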

[4] = input ligand: microRNA oligo, concentration not stated
[5] = Eterna round: R95, input ligand: microRNA oligo, concentration not stated
[6] = Eterna round: R95, input ligand: FMN 200 uM
[7] = Eterna round: R95, input ligand: none

Sequence | apparent KD of MS2 coat protein [1] [nM] | apparent KD of MS2 coat protein [2] [nM] | apparent KD of MS2 coat protein ([3]; input ligand: FMN 200 uM) [nM] | apparent KD of MS2 coat protein [3, 4] [nM] | apparent KD of MS2 coat protein ([3]; input ligand: none) [nM] | also measured
AACAUGUCAGGAUAUGUAGCAAAAAGUGAUCCAAAAAAGCUACAGAAGGGACAUGAGGAUCACCCAUGUAAAAA [Ex4: 933] | 44.5 | 124 |  |  |  | 
AAAGGGUCAGGAUAUCGAUGAAUAAUAAAACAAAGGAACAUCGAGAAGGGACAUGAGGAUCACCCAUGUAUAAC [May 80] | 48.4 | 42.4 |  |  |  | 
AGAACACAUGAGGAUCACCCAUGUCAGGAUAUUCAAACAAAAACAAAACAAAACAAACGAAGAAGGGACAAAAG [May 2] | 36 | 32.3 |  |  |  | 
AAAAAGAGAGGAUAUACAUGAGGAUCACCCAUGUAACAUUAAAUAAAUAAAAUAAAGUGUAGAAGGCUCAAAAA [65%, Moding Exclusion3-cac2, 24] | 34.3 | 27.9 |  |  |  | 
AAAAAGCGAGGAUAUACAUGAGGAUCACCCAUGUAAAAAAAAAGAGAUGAAACAUCAUGUAGAAGGCGCAAAAA [Excls3-I] | 67.1 | 131 |  |  |  | 
AGCUAGUCAGGAUAUACGAACAAGAAAAAAGACGAGAACGGACAUGAGGAUCACCCAUGUAGAAGGGACUAGCA [Diamond 9] | 26.3 | 23.8 |  |  |  | 
AGAAAGUCAGGAUAUACGAAUAAGAAUAAAGACGAGAUCGGACAUGAGGAUCACCCAUGUAGAAGGGACAAGAA [Diamond 17] | 74.7 | 121 |  |  |  | 
ACAGCUGAAGGAUAUACUUGGAAAAAAAAAAAAAAAAAAAAACAUGAGGAUCACCCAUGUAGAAGGUCAGCUGA [Brourd - Exclusion 2 - Sub 2] |  | 50.3 |  |  |  | 
UAUAUUAUGGUAGGAUAUGUAGGAUAUGGCGAGAGCUAAGCUUGGAAGUCACUUCAGCCAGAAGGACAGAAGGACCAUAAUAUU [pwkr ssNG2 2FMN + F9.9] (Eterna round: R96, puzzle: Same State NG 2) |  |  | 16.6 | 127 | 216 | 
UGGUACAUGGGAGGAUAUCCUCAGGAGACAUGAGGAUCACCCAUGUAAUAUAAGCCGAAAGGCAUGGAGAAGGCCCAUGUACCU [JL SSNG1 3.81] (Eterna round: R96, puzzle: Same State NG 2) |  |  | 27.6 | 150 | 167 | 
GCUGCGUUUAACGCCUACAUGAGGAUCACCCAUGUAUGUAGGCAGGAUAUCGUUUGCUUUGCAAACGAGAAGGGCUGUAGUAGC [salish99_SSNG3_R04_005] (Eterna round: R96, puzzle: Same State NG 3) |  |  | 41.6 | 85 | 73.8 | 
UUUGGGUGGCUGGAGGAUAUUCUAGUGGUUACAUGAGGAUCACCCAUGUGUCGCGCGGUUCGCGAGGAGAAGGCUGGCGGCCGUU (puzzle: Same State 2) |  |  |  |  |  | apparent KD of MS2 coat protein [3, 5]: 93.3 nM
GUGUUACAUGAGGAUCACCCAUGUUGUUGUAGAUAAGGAUAUAUGGGAACGAGAGAAAUAAUAGAAGGUAUUAGGC [JR_SS1_Sub060] (puzzle: Same State 1) |  |  |  |  |  | apparent KD of MS2 coat protein [3, 5]: 77.4 nM
ACAUGACAUGACAUGAGGAUCACCCAUGUGAGGAUCACCCGGGAGGAUAUAGCCCAUGUGGAUCACUAGAAGGCCCUGAGGAUC [Same State NG3 S1] (Eterna round: R96, puzzle: Same State NG 3) |  |  | 36.4 | 39.5 | 49.5 | 
UAUUAGAUCCGAGGAUAUCCUUAUUACAAACAUGAGGAUCACCCAUGUAAAGGGAAUGAGUUGUAGGAGAAGGCGGAUUUAGUU [JR_SSNG2_Sub057] (Eterna round: R96, puzzle: Same State NG 2) |  |  | 33.5 | 33 | 51 | 
AUAAGACAGGCAGGAUAUGGGCCUGACUCUGAUAUCAGAGUCUACACAUGAGGAUCACCCAUGUCCCAGAAGGGCCUGAAGAAG [Zavean] (Eterna round: R96, puzzle: Same State NG 2) |  |  | 17.6 | 92.2 | 102 | 
AGUCCAGCCUGAGCUGGACAAAAGCGUGUACAUGAGGAUCACCCAUGUCAUGUACAAGCUUUUUGCUCGUCUUAAAA [Zipper 46 - 7] (puzzle: Sensor for hsa-mir-208a) |  |  |  |  |  | apparent KD of MS2 coat protein [3, 6]: 63.5 nM; apparent KD of MS2 coat protein [3, 5]: 19.9 nM; apparent KD of MS2 coat protein [3, 7]: 69.8 nM
GUGGCCUAGGCACAGGAUAUGUUUCUCGUAACAUGAGGAUCACCCAUGUGCCUUUGAGAUUUUAUGCAGAAGGGUGCACGCCACG [JL Atiinbe mod 04] (puzzle: Same State 2) |  |  |  |  |  | apparent KD of MS2 coat protein [3, 6]: 20.6 nM; apparent KD of MS2 coat protein [3, 5]: 273 nM; apparent KD of MS2 coat protein [3, 7]: 491 nM

From the supplement of paper PMC9170038
